From US20260098102A1 (NATIONAL UNIVERSITY CORPORATION KOBE UNIVERSITY, published 2026) come the findings set out here.

One assay deals with T1, SIRPA_V1_IgV (human, UniProt P78324 31-149).
T1 construct: Secreted recombinant protein from FreeStyle 293F cells
Put plainly: SPR Biacore T200, antibody captured on anti-human IgG (Fc), SIRPA_V1_IgV as analyte (0.25 to 16 nM), 1:1 model. As to the method: (§1) The dissociation constants were measured by a capture method comprising capturing each antibody as a ligand to an Anti-Human IgG (Fc) antibody immobilized using Human Antibody Capture Kit (GE Healthcare Bioscience Corp.) and measuring an antigen as an analyte, using Biacore T200 (GE Healthcare Bioscience Corp.). HBS-EP+ (GE Healthcare Bioscience Corp.) was used as a running buffer, and CM5 (GE Healthcare Bioscience Corp.) was used as a sensor chip. Onto the chip, 2 μg/mL of various antibodies were added at 10 μL/min for 30 seconds, then a serially diluted solution (0.25 to 16 nM) of the human SIRPA protein as an antigen was added at a flow rate of 30 μL/min for 120 seconds, and subsequently the dissociation phase for 600 seconds was monitored. As a regenerant, 3 M magnesium chloride (GE Healthcare Bioscience Corp.) was added at a flow rate of 20 μL/min for 30 seconds. For data analysis, a binding rate constant (ka), a dissociation rate constant (kd), and a dissociation constant (KD; KD=kd/ka) were calculated using a 1:1 binding model.
(In general: SPR reads the build-up and loss of mass on a sensor chip optically.)

Another assay addresses T2, SIRPA_V2_IgV (human).
T2 construct: Secreted recombinant protein; The crystal model held residues 33 to 143 of human SIRPA Variant 2
Put plainly: SPR Biacore T200, antibody captured on anti-human IgG (Fc), SIRPA_V2_IgV as analyte (0.25 to 16 nM), 1:1 model. As to the method: as §1

The next assay deals with T3, human SIRPA_V1 protein (human, UniProt P78324 31-504).
T3 construct: Expressed on 293α cells from pcDNA3.2 V5-DEST or pFLAG V5-DEST (FLAG-tagged) vectors; also called human SIRPA Variant 1; hSIRPA V1
T3 sequence (P78324 31-504 limits assumed): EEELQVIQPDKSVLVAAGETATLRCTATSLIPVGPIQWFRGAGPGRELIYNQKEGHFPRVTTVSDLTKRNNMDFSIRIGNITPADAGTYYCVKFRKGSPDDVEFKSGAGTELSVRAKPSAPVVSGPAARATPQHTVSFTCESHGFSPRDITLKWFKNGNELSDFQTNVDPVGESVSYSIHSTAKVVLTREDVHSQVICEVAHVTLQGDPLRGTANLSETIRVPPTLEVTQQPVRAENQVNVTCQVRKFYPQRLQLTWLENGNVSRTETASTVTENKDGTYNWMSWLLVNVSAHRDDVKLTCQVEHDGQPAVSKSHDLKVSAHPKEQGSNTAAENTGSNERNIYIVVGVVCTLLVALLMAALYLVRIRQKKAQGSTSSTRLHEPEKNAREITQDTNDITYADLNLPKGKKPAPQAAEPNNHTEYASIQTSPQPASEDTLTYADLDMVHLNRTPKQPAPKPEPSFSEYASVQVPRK
Put plainly: blocking cell-based ELISA: peroxidase-labeled CD47-Fc (1 µg/mL) on 293α cells expressing SIRPA_V1. On the procedure: (§2) After the culture supernatant of the human SIRPA_V1 or V2 expression vector-introduced 293 cells prepared in Example 9)-1 was removed, 50 μL per well of various anti-SIRPA antibodies or various control Human IgG diluted with 5% FBS-containing PBS to a final concentration of 0 to 10,000 ng/ml was added to each of pcDNA3.2 V5-DEST-SIRPA_V1 or V2-introduced 293α cells, immediately followed by addition of 50 µL per well of peroxidase-labeled CD47-Fc prepared with 5% FBS-containing PBS at 1 μg/mL, and the mixture was allowed to stand at 4° C. for one hour. Thereafter, the SIRPA-CD47 binding inhibitory activity was evaluated in the same manner as in 1)-6-3.
(An ELISA detects its analyte on a solid surface through an enzyme-linked reagent.)

The target of another assay is T4, human SIRPA_V2 protein (human, UniProt P78324 31-504).
T4 construct: Expressed on 293α cells from pcDNA3.2 V5-DEST or pFLAG V5-DEST (FLAG-tagged) vectors; also called human SIRPA Variant 2; ECD variant (full-length, amino acids 1 to 504)
T4 sequence (P78324 other isoform, or with tags, fused parts or gaps limits assumed): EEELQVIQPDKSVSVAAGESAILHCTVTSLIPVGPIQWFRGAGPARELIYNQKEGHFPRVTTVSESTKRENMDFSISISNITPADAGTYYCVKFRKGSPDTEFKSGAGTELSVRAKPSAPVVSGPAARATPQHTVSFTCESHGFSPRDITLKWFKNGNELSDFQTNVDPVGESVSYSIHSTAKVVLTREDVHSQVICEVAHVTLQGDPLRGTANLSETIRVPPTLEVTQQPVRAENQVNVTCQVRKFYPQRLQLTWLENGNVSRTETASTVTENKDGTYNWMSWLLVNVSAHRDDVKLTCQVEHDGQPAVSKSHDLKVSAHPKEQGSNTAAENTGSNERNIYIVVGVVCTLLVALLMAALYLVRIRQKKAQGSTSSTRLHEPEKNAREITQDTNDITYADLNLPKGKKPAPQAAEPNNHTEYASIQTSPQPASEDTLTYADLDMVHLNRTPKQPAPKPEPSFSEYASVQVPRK
Put plainly: blocking cell-based ELISA: peroxidase-labeled CD47-Fc (1 µg/mL) on 293α cells expressing SIRPA_V2. On the procedure:
as §2

A further assay has as its target T5, human SIRPB (human, UniProt O00241 30-398).
T5 construct: whole, on cells; FLAG-tagged (pFLAG V5-DEST), on CHO-K1 cells; also called SIRPβ1; signal regulatory protein β1
Put plainly: flow cytometry on CHO-K1 cells expressing FLAG-tagged human SIRPB; PE anti-human IgG; MFI standardized to secondary antibody alone. As to the method: SIRPβ1 (signal regulatory protein β1: the amino acid sequence thereof is published as RefSeq accession number NP_006056) and SIRPγ (signal regulatory protein γ: the amino acid sequence thereof is published as RefSeq accession number NP_061026) are molecules belonging to the SIRPA family. In the present invention, “SIRPα” may be referred to as “SIRPA,” “SIRPβ1” may be referred to as […] and “SIRPγ” may be referred to as “SIRPG.” CHO-K1 cells were prepared in a 10% FBS-containing Ham's F-12K medium at 3.3×10⁵ cells/mL and cultured overnight at 37° C. under a 5% CO₂ condition. pFLAG V5-DEST-human SIRPβ, pFLAG V5-DEST-human SIRPG, or pFLAG V5-DEST was introduced into the cells using Lipofectamine LTX (Invitrogen), and cells were cultured in a 10% FBS-containing Ham's F-12K medium at 37° C. under a 5% CO₂ condition for 24 hours. The obtained introduced cells were collected and seeded on a 96-well plate. After the culture supernatant was removed, 100 μL per well of various anti-human SIRPA antibodies or various control human IgG was added to each of various gene introduced cells at a final concentration of 0 to 10,000 ng/mL, and the mixture was allowed to stand at 4° C. for 25 minutes. After the mixture was centrifuged, the supernatant was removed, and cells were washed twice with 5% FBS-containing PBS. After the mixture was centrifuged, the supernatant was removed, 50 μL per well of a 1/400 diluted solution of PE Mouse anti-Human IgG antibody (BioLegend) was added, and the mixture was allowed to stand at 4° C. for 25 minutes. After the mixture was centrifuged, the supernatant was removed, and cells were washed twice with 5% FBS-containing PBS.
(§3) After the mixture was centrifuged, and the supernatant was removed, cells were suspended in 100 μL per well of 1× BD Stabilizing Fixative (Becton Dickinson), and the cell count was measured by flow cytometry (FACS Canto II: Becton Dickinson). For data analysis, FlowJo (TreeStar) was used. Cells were characterized by detecting forward scattered (FSC) light and side-scattered (SSC) light, and then the mean fluorescence intensity of PE was calculated. Binding of various antibodies to the family molecules was calculated by standardizing the fluorescence intensity using the mean fluorescence intensity of a sample in which the secondary antibody alone was allowed to react.
A general note: Flow cytometry measures light scatter and fluorescence of single cells or particles in a stream.

The next assay concerns the target T6, human SIRPG (human, UniProt Q9P1W8 29-387).
T6 construct: whole, on cells; FLAG-tagged (pFLAG V5-DEST), on CHO-K1 cells; also called SIRPγ; signal regulatory protein γ
Put plainly: flow cytometry on CHO-K1 cells expressing FLAG-tagged human SIRPG; PE anti-human IgG; MFI standardized to secondary antibody alone. On the procedure:
SIRPβ1 (signal regulatory protein β1: the amino acid sequence thereof is published as RefSeq accession number NP_006056) and SIRPγ (signal regulatory protein γ: the amino acid sequence thereof is published as RefSeq accession number NP_061026) are molecules belonging to the SIRPA family. In the present invention, “SIRPα” may be referred to as “SIRPA,” “SIRPβ1” may be referred to as […] and “SIRPγ” may be referred to as “SIRPG.” CHO-K1 cells were prepared in a 10% FBS-containing Ham's F-12K medium at 3.3×10⁵ cells/mL and cultured overnight at 37° C. under a 5% CO₂ condition. pFLAG V5-DEST-human SIRPβ, pFLAG V5-DEST-human SIRPG, or pFLAG V5-DEST was introduced into the cells using Lipofectamine LTX (Invitrogen), and cells were cultured in a 10% FBS-containing Ham's F-12K medium at 37° C. under a 5% CO₂ condition for 24 hours. The obtained introduced cells were collected and seeded on a 96-well plate. After the culture supernatant was removed, 100 μL per well of various anti-human SIRPA antibodies or various control human IgG was added to each of various gene introduced cells at a final concentration of 0 to 10,000 ng/mL, and the mixture was allowed to stand at 4° C. for 25 minutes. After the mixture was centrifuged, the supernatant was removed, and cells were washed twice with 5% FBS-containing PBS. […]
as §3, with “For data analysis, FlowJo (TreeStar) was used.” left out

T5 sequence (O00241 30-398): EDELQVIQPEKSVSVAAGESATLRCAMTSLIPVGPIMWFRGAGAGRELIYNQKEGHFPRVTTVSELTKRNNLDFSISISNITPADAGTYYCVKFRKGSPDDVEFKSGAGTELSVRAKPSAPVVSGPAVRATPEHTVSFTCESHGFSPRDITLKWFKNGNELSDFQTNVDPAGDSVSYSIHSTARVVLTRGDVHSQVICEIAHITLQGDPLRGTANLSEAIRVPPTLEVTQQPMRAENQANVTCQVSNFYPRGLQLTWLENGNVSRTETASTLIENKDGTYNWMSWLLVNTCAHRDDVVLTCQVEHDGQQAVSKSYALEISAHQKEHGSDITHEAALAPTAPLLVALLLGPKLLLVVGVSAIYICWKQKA
T6 sequence (Q9P1W8 29-387): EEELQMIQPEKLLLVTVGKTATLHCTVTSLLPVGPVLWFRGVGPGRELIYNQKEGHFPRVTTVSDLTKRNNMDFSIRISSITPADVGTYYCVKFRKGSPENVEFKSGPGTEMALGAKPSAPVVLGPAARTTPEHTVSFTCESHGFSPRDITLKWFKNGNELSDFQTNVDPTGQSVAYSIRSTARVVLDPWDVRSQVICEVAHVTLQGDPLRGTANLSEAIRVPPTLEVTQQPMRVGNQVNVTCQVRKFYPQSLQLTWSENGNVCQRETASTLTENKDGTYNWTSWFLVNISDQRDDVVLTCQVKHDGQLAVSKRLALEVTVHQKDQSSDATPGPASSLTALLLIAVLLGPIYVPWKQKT
T1 sequence (P78324 other isoform, or with tags, fused parts or gaps limits assumed): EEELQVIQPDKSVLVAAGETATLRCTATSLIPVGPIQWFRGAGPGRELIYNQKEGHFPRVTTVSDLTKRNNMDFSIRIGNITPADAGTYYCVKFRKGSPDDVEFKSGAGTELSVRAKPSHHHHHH
T2 sequence (chain, as listed by the source limits assumed): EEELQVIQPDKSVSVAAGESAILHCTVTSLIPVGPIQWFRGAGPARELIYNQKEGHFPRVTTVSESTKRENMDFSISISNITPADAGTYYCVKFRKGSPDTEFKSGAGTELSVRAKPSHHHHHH

B1: KWAR23 (antibody, human IgG4 S228P, kappa, V domains shown)
VH: EVQLQQSGAELVKPGASVKLSCTASGFNIKDYYIHWVQQRTEQGLEWIGRIDPEDGETKYAPKFQDKATITADTSSNTAYLHLSSLTSEDTAVYYCARWGAYWGQGTLVTVSA
VL: QIVLTQSPAIMSASPGEKVTLTCSASSSVSSSYLYWYQQKPGSSPKLWIYSTSNLASGVPARFSGSGSGTSYSLTISSMEAEDAASYFCHQWSSYPRTFGAGTKLELKR
notes: IgG4Pro heavy chain; also called KWAR23_hG4Pro / KWAR23_hK
A word on the Kd: it is the equilibrium constant for the complex coming apart. High values mean a looser complex, low ones a tighter complex. Broadly, the IC50 is the point on the concentration scale where inhibition reaches its midpoint. Low values mean greater potency in that assay, high ones weaker potency in that assay. In general, EC50 (read off the curve) refers to the concentration needed to bring the measured effect to its halfway point. Read a low EC50 (read off the curve) as a more potent agent. For the molecule B1, the figures for the equilibrium dissociation constant (Kd) with SIRPA_V1_IgV and with SIRPA_V2_IgV were 2.55 nM and 4.46 nM, respectively. The IC50 with human SIRPA_V1 protein worked out at 2.24 µg/mL; with human SIRPA_V2 protein, 2.19 µg/mL. Moreover, the binding result with human SIRPB is recorded as “binds”. Moreover, in the assay with human SIRPG, the “EC50 (read off the curve)” value is approximately 0.03 µg/mL.
